This experiment deals with rats with focal ischemia (MCAO). Description: Mortality after focal ischemia (MCAO) stroke. The class given is in vivo. The settings on record: rTPA i.v. 6 hours after the stroke, with or without bryostatin-1 2 hours later. The procedure:
A transient animal model of focal ischemia was used for these experiments. The middle cerebral artery (MCA) was surgically dissected and occluded in anesthetized rats by ligature, followed by reperfusion after a defined period (about 2 hours). Animal models transient ischemia via occlusion of the MCA (MCAO) are described in, e.g., Sicard and Fisher, Exp. & Transl. Stroke Med. (2009), vol. 1, pp. 1-7.
In contrast, if rTPA was given 6 hours after the stroke, in the absence of subsequent treatment with bryostatin, 44% mortality was observed (N=6 animals).

B1: rTPA: recombinant tissue plasminogen activator, thrombolytic serine protease approved for ischemic stroke (protein, UniProt P00750 36-562, looked up)
Tissue-type plasminogen …: SYQVICRDEKTQMIYQQHQSWLRPVLRSNRVEYCWCNSGRAQCHSVPVKSCSEPRCFNGGTCQQALYFSDFVCQCPEGFAGKCCEIDTRATCYEDQGISYRGTWSTAESGAECTNWNSSALAQKPYSGRRPDAIRLGLGNHNYCRNPDRDSKPWCYVFKAGKYSSEFCSTPACSEGNSDCYFGNGSAYRGTHSLTESGASCLPWNSMILIGKVYTAQNPSAQALGLGKHNYCRNPDGDAKPWCHVLKNRRLTWEYCDVPSCSTCGLRQYSQPQFRIKGGLFADIASHPWQAAIFAKHRRSPGERFLCGGILISSCWILSAAHCFQERFPPHHLTVILGRTYRVVPGEEEQKFEVEKYIVHKEFDDDTYDNDIALLQLKSDSSRCAQESSVVRTVCLPPADLQLPDWTECELSGYGKHEALSPFYSERLKEAHVRLYPSSRCTSQHLLNRTVTDNMLCAGDTRSGGPQANLHDACQGDSGGPLVCLNDGRMTLVGIISWGLGCGQKDVPGVYTKVTNYLDWIRDNMRP
Regarding B1, the “mortality 24 hours later” value turned out to be 44%.

The values are drawn from US20120020948A1, “DAG-TYPE AND INDIRECT PROTEIN KINASE C ACTIVATORS AND ANTICOAGULANT FOR THE TREATMENT OF STROKE” (priority 2010, published 2012).
